Assay results from article PMC3177189.
Where two headings read alike, the source gives them in different places.

Experiments:
[1] = target: EcNusB wt (Escherichia coli, UniProt P0A780 1-139); assay: NMR
[2] = target: T1, AaNusB;AaNusE (S10) loop deletion (Aquifex aeolicus;Aquifex aeolicus, UniProt O66530;O66430 1-148;1-46+=S+69-104, |internal_change); assay: crystal structure
T1 sequence 1: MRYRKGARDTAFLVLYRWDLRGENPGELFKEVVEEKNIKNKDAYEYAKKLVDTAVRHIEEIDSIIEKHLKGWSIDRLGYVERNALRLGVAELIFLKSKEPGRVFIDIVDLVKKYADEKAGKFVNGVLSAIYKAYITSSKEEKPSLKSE
T1 sequence 2: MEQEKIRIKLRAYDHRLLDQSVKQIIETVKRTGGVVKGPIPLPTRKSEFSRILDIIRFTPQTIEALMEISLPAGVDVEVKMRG

[3] = target: EcNusB F122D (Escherichia coli, UniProt P0A780 1-139, F122D); assay: ITC
[4] = target: T1, AaNusB;AaNusE (S10) loop deletion; assay: crystal structure; remark: listed apart in the source

GCCGCGCCGCUGAGAAAAAGCGAAGCGGCACUGCUCUUUA (structured_RNA) [EcBoxA-BoxB]
binding result [1]: binds

B1: AaBoxA duplex (dsRNA) (dsRNA)
RNA 1: GGCUCCUUGGCA
RNA 2: GGCUCCUUGGCA
binding result [2]: binds

UGCUCUUUAACA (ssRNA) [EcBoxA]
binding result [3]: no binding

GGCUCCUUGGCA (ssRNA) [AaBoxA]
binding result [4]: binds
